In PMC5849714, “Direct coupling of detergent purified human mGlu5 receptor to the heterotrimeric G proteins Gq and Gs” (Scientific Reports, 2018):

Assays:
[1] = biological target: mGlu5-Δ856 (construct for large-scale purification, devoid of eGFP) (human) (UniProt P41594)
[2] = biological target: mGlu5-Δ856 (construct for large-scale purification, devoid of eGFP) (human) (UniProt P41594); assay: SEC; purified receptor on Superose 6 increase in MNG3/CHS

Sequence of Gαqβ1γ2 (P50148 whole entry): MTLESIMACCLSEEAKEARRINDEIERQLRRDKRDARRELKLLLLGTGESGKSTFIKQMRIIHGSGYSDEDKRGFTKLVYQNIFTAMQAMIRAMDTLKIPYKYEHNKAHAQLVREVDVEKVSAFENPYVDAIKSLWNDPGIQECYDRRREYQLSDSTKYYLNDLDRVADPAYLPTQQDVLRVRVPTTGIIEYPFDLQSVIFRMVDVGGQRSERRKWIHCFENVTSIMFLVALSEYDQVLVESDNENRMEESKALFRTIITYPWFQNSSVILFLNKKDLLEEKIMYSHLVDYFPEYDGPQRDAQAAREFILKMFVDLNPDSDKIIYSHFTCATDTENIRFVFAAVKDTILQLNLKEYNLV
Sequence of Gαqβ1γ2 (P62873 whole entry): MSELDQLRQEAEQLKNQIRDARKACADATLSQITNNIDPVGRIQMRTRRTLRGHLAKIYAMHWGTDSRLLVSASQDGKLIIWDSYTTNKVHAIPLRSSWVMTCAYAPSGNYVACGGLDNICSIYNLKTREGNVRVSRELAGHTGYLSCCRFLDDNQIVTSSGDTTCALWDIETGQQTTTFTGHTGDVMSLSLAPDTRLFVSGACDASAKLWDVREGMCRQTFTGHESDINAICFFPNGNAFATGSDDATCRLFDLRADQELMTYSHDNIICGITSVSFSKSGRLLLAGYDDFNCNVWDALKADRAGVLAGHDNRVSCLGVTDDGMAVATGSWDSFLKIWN
Sequence of Gαqβ1γ2 (P59768 whole entry): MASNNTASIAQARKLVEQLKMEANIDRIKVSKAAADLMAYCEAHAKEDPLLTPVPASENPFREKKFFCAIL

Row | Substance | Bodipy-FL GTPγS fluorescence, purified receptor in detergent, glutamate and VU0424465 together: increase of the maximum response [1] | stoichiometry N [2]
1 | Gαqβ1γ2 (from UniProt P50148 1-359; P62873 1-340; P59768 1-71) (complex) | 30% | –
2 | mGlu5-Δ856 (construct for large-scale purification, devoid of eGFP) (from UniProt P41594-2 21-856) (receptor) | – | 2
